Test results taken from PMC3226482 (Molecular Biology of the Cell, 2011).
Numbering of substitutions follows the chain as printed.

B1: GST-hsNXF1 (full-length human NXF1) (natural protein)
chain: MADEGKSYSEHDDERVNFPQRKKKGRGPFRWKYGEGNRRSGRGGSGIRSSRLEEDDGDVAMSDAQDGPRVRYNPYTTRPNRRGDTWHDRDRIHVTVRRDRAPPERGGAGTSQDGTSKNWFKITIPYGRKYDKAWLLSMIQSKCSVPFTPIEFHYENTRAQFFVEDASTASALKAVNYKILDRENRRISIIINSSAPPHTILNELKPEQVEQLKLIMSKRYDGSQQALDLKGLRSDPDLVAQNIDVVLNRRSCMAATLRIIEENIPELLSLNLSNNRLYRLDDMSSIVQKAPNLKILNLSGNELKSERELDKIKGLKLEELWLDGNSLCDTFRDQSTYISAIRERFPKLLRLDGHELPPPIAFDVEAPTTLPPCKGSYFGTENLKSLVLHFLQQYYAIYDSGDRQGLLDAYHDGACCSLSIPFIPQNPARSSLAEYFKDSRNVKKLKDPTLRFRLLKHTRLNVVAFLNELPKTQHDVNSFVVDISAQTSTLLCFSVNGVFKEVDGKSRDSLRAFTRTFIAVPASNSGLCIVNDELFVRNASSEEIQRAFAMPAPTPSSSPVPTLSPEQQEMLQAFSTQSGMNLEWSQKCLQDNNWDYTRSAQAFTHLKAKGEIPEVAFMK
B2: importin 4 (natural protein)
chain: MESAGLEQLLRELLLPDTERIRRATEQLQIVLRAPAALPALCDLLASAADPQIRQFAAVLTRRRLNTRWRRLAAEQRESLKSLILTALQRETEHCVSLSLAQLSATIFRKEGLEAWPQLLQLLQHSTHSPHSPEREMGLLLLSVVVTSRPEAFQPHHRELLRLLNETLGEVGSPGLLFYSLRTLTTMAPYLSTEDVPLARMLVPKLIMAMQTLIPIDEAKACEALEALDELLESEVPVITPYLSEVLTFCLEVARNVALGNAIRIRILCCLTFLVKVKSKALLKNRLLPPLLHTLFPIVAAEPPPGQLDPEDQDSEEEELEIELMGETPKHFAVQVVDMLALHLPPEKLCPQLMPMLEEALRSESPYQRKAGLLVLAVLSDGAGDHIRQRLLPPLLQIVCKGLEDPSQVVRNAALFALGQFSENLQPHISSYSREVMPLLLAYLKSVPLGHTHHLAKACYALENFVENLGPKVQPYLPELMECMLQLLRNPSSPRAKELAVSALGAIATAAQASLLPYFPAIMEHLREFLLTGREDLQPVQIQSLETLGVLARAVGEPMRPLAEECCQLGLGLCDQVDDPDLRRCTYSLFAALSGLMGEGLAPHLEQITTLMLLSLRSTEGIVPQYDGSSSFLLFDDESDGEEEEELMDEDVEEEDDSEISGYSVENAFFDEKEDTCAAVGEISVNTSVAFLPYMESVFEEVFKLLECPHLNVRKAAHEALGQFCCALHKACQSCPSEPNTAALQAALARVVPSYMQAVNRERERQVVMAVLEALTGVLRSCGTLTLKPPGRLAELCGVLKAVLQRKTACQDTDEEEEEEDDDQAEYDAMLLEHAGEAIPALAAAAGGDSFAPFFAGFLPLLVCKTKQGCTVAEKSFAVGTLAETIQGLGAASAQFVSRLLPVLLSTAQEADPEVRSNAIFGMGVLAEHGGHPAQEHFPKLLGLLFPLLARERHDRVRDNICGALARLLMASPTRKPEPQVLAALLHALPLKEDLEEWVTIGRLFSFLYQSSPDQVIDVAPELLRICSLILADNKIPPDTKAALLLLLTFLAKQHTDSFQAALGSLPVDKAQELQAVLGLS
B3: MBP-hsNXF1-N (domain or fragment)
chain: MADEGKSYSEHDDERVNFPQRKKKGRGPFRWKYGEGNRRSGRGGSGIRSSRLEEDDGDVAMSDAQDGPRVRYNPYTTRPNRRGDTWHDRDRIHVTVRRDRAPPERGGAG
B4: MBP-hsNXF1-N(21-30/A) (domain or fragment)
chain: B3 chain with R21A, K22A, K23A, K24A, G25A, R26A, G27A, P28A, F29A, R30A
B5: MBP-hsNXF1-N(71-75/A) (domain or fragment)
chain: B3 chain with R71A, Y72A, N73A, P74A, Y75A

Tests used:
importin 4 = target: B2; test: pull-down
importin β [1] = target: T1, importin β (human, UniProt Q14974 1-876); test: pull-down
T1 sequence (Q14974 whole entry): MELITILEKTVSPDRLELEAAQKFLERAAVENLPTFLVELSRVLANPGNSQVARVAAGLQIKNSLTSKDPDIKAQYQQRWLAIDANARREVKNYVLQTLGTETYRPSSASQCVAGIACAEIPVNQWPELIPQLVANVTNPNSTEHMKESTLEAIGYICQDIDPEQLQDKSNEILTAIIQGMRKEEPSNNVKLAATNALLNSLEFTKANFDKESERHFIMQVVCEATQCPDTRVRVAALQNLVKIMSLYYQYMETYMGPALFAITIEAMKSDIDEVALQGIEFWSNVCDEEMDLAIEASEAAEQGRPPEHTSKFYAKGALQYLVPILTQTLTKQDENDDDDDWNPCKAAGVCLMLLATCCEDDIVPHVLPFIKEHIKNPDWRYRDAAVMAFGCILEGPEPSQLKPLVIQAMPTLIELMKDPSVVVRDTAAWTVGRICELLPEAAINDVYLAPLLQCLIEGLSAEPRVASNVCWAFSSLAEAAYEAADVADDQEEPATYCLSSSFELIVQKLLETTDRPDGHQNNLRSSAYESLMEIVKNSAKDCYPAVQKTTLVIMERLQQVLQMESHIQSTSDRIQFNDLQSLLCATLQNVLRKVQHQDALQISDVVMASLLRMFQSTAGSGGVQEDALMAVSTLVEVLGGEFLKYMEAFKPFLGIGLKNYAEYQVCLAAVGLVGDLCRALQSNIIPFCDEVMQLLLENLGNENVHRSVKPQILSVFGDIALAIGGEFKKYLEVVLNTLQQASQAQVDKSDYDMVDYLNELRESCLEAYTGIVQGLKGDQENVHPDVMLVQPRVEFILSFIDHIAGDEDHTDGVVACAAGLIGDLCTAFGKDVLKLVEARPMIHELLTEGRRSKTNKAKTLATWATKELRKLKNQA

importin 11 = target: T2, importin 11 (human, UniProt Q9UI26 1-975); test: pull-down
T2 sequence: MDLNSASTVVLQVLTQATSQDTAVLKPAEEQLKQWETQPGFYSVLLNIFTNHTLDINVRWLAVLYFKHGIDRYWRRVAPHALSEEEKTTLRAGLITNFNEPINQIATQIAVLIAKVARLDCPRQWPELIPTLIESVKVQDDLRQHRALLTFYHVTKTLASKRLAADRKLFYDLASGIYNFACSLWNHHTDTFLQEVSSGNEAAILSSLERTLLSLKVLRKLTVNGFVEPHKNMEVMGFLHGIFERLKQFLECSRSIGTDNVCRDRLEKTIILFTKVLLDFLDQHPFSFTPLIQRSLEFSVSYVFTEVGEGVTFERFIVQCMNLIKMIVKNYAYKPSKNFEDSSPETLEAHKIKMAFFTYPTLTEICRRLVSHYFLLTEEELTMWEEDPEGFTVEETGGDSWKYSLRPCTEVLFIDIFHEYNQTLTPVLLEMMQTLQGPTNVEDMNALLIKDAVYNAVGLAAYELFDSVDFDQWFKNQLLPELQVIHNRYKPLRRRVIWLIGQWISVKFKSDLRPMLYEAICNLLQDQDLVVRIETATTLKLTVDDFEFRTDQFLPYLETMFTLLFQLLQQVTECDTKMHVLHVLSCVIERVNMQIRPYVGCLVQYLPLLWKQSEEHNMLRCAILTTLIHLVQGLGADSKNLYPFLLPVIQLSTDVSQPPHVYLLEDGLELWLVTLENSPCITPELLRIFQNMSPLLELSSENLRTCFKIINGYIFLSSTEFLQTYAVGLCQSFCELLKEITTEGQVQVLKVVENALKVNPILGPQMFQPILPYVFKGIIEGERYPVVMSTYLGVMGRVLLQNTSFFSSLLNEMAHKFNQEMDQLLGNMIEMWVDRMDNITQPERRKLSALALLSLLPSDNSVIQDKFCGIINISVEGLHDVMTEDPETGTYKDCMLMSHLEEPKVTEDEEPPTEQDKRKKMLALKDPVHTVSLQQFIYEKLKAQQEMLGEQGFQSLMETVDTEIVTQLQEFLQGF

[2] = target: RanGTP (recombinant human Ran loaded with GTP) (human, UniProt P62826 1-216); test: pull-down
GST-Imp11 = target: T3, GST-Imp11 (human, UniProt Q9UI26 1-975); test: pull-down
T3 sequence: T2 sequence

GST-Imp4 = target: T4, GST-Imp4 (human, UniProt Q8TEX9 1-1081); test: pull-down
T4 sequence: B2 chain

importin β [3] = target: T1, importin β; test: ITC
karyopherin β2 = target: T5, karyopherin β2 (human, UniProt Q92973 1-898); test: ITC
T5 sequence: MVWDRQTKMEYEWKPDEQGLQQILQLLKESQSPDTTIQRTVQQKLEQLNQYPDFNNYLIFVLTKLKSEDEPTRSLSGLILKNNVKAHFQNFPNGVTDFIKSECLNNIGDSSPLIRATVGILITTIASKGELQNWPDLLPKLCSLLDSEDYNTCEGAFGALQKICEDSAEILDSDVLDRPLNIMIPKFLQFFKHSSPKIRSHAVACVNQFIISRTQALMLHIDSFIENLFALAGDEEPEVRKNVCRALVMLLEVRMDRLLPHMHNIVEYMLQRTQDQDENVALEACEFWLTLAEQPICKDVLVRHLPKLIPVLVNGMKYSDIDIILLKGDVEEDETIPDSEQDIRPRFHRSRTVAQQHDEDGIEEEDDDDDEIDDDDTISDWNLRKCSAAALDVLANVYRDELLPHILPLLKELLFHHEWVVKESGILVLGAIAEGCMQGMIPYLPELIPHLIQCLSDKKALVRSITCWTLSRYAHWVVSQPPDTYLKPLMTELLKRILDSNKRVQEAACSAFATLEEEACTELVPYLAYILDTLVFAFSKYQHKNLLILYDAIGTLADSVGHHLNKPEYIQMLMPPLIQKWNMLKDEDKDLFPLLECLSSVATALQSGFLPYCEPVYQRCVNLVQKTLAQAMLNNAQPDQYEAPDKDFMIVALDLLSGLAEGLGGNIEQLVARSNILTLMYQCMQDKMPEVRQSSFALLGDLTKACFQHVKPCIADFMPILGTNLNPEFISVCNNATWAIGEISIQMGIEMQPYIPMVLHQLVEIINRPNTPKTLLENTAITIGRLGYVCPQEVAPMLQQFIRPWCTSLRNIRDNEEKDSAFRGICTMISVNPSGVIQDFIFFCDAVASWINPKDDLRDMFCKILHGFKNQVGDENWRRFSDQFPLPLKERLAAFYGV

Row | Binder | dH (two-site model, site 1) (importin β [3]) | dH (two-site model, site 2) (importin β [3]) | Kd (karyopherin β2) | dH (karyopherin β2) | also measured
1 | B1 | – | – | – | – | binding result (importin 4): binds; binding result (importin β [1]): binds; binding result (importin 11): binds
2 | B2 | – | – | – | – | binding result [2]: binds
3 | B3 | -7.51 kcal/mol | -4.6 kcal/mol | 40.5 nM | -17.2 kcal/mol | binding result (GST-Imp11): binds; binding result (GST-Imp4): binds
4 | B4 | – | – | 128 nM | -13.9 kcal/mol | Kd (importin β [3]): 2230 nM; dH (importin β [3]): -2.48 kcal/mol
5 | B5 | -7.73 kcal/mol | -3.28 kcal/mol | 215 nM | -12.9 kcal/mol | –
